# In PMC6016249:
# Biological target: α1-subunit of steroid C-25 dehydrogenase 1 (S25DH1), recombinant from Thauera aromatica K172 (Sterolibacterium denitrificans)
# Assay: co-purification (ion exchange and dye-affinity chromatography, SDS-PAGE); nontagged subunits coproduced in T. aromatica K172; soluble extract, anaerobic DEAE-Sepharose then Reactive Red 120, active fractions followed; SDS-PAGE, bands of S25DH1 identified by ESI-QTOF-MS of tryptic digests
# Sequence of α1-subunit of steroid C-25 dehydrogenase 1 (S25DH1), recombinant from Thauera aromatica K172 (Sterolibacterium denitrificans) (main, as listed by the source): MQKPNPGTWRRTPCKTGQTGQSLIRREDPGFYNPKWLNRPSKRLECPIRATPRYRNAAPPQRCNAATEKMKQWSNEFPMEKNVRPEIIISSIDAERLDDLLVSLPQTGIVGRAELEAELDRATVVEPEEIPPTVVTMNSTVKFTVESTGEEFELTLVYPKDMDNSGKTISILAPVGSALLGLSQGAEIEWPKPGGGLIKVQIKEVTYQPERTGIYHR
row,Substance,stoichiometry N
1,"β3-subunit of steroid C-25 dehydrogenase, recombinant from Thauera aromatica K172 (natural protein)",1 β3 per α1
2,"γ3-subunit of steroid C-25 dehydrogenase, recombinant from Thauera aromatica K172 (natural protein)",1 γ3 per α1
